Substitutions are numbered along the chain they refer to.
B1: M103205H795-MY271/M103202L889-SK1 (antibody, human IgG1, kappa)
heavy: QVTLKESGPVLVKPTETLTLTCTVSGIDLSHDDISWVRQAPGKGLEWVGIISYAGSTYYASWAKGRLTISKDTSKNQVVLTMTNMDPVDTATYYCARGVPAYSHGGDLWGQGTLVTVSSASTKGPSVFPLAPSSKSTSGGTAALGCLVKDYFPEPVTVSWNSGALTSGVHTFPAVLQSSGLYSLSSVVTVPSSSLGTQTYICNVNHKPSNTKVDKKVEPKSCDKTHTCPPCPAPELLVGPSVFLFPPKPKDTLMISRTPEVTCVVVDVSDEDPEVKFNWYVDGVEVHNAKTKPREEQYNSTYRVVSVLTVLHQDWLNGKEYKCKVSNKALPKPIEKTISKAKGQPREPQVYTLPPSREEMTKNQVSLTCLVKGFYPSDIAVEWESNGQPENNYKTTPKVLDSDGSFFLYSKLTVDKSRWQQGNVFSCSVMHEALHNHYTQKSLSLSP
light: DIVMTQSPATLSLSPGERATLSCTSSQSVYHANWLSWFQQKPGQPPKLLIYWASTLAYGVPSRFSGSGSGTDFTLTISSLQPEDAATYYCAGGYGGGRYAFGQGTKVEIKRTVAAPSVFIFPPSDEQLKSGTASVVCLLNNFYPREAKVQWKVDNALQSGNSQESVTEQDSKDSTYSLSSTLTLSKADYEKHKVYACEVTHQGLSSPVTKSFNRGEC
B2: M103205H795-MY281/M103202L889-SK1 (antibody, human IgG1, kappa)
heavy: B1 heavy with V238Q, Q297L, K398P
light: B1 light
B3: M103205H795-MY279/M103202L889-SK1 (antibody, human IgG1, kappa)
heavy: B1 heavy with V238H, Q297L, K398P
light: B1 light
B4: M103205H795-MY272/M103202L889-SK1 (antibody, human IgG1, kappa)
heavy: B1 heavy with V238Q
light: B1 light
B5: M103205H795-MY310/M103202L889-SK1 (antibody, human IgG1, kappa)
heavy: B1 heavy with V238T, D270E, K328T, K398P
light: B1 light
B6: M103205H795-MY276/M103202L889-SK1 (antibody, human IgG1, kappa)
heavy: B1 heavy with V238I
light: B1 light
B7: M103205H795-MY274/M103202L889-SK1 (antibody, human IgG1, kappa)
heavy: B1 heavy with V238T
light: B1 light
B8: M103205H795-MY273/M103202L889-SK1 (antibody, human IgG1, kappa)
heavy: B1 heavy with V238L
light: B1 light
B9: M103205H795-MY308/M103202L889-SK1 (antibody, human IgG1, kappa)
heavy: B1 heavy with V238T, D270E, K398P
light: B1 light
B10: M103205H795-MY278/M103202L889-SK1 (antibody, human IgG1, kappa)
heavy: B1 heavy with V238M, Q297L, K398P
light: B1 light
B11: M103205H795-MY280/M103202L889-SK1 (antibody, human IgG1, kappa)
heavy: B1 heavy with Q297L, K398P
light: B1 light
B12: M103205H795-MY293/M103202L889-SK1 (antibody, human IgG1, kappa)
heavy: B1 heavy with V238G, G239Y, D270E, Q297L
light: B1 light
B13: M103205H795-MY309/M103202L889-SK1 (antibody, human IgG1, kappa)
heavy: B1 heavy with V238T, D270E, K398M
light: B1 light
B14: M103205H795-MY292/M103202L889-SK1 (antibody, human IgG1, kappa)
heavy: B1 heavy with V238G, G239Y, Q297L, K398M
light: B1 light

Experiments:
Test in all cases: SPR (Biacore), KD of SG1 / KD of variant;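 further: relative to parent M103205H795-SG1 carrying the SG1 human heavy chain constant region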
[1] = biological target: T1, cynomolgus monkey FcγRIIa1 extracellular domain, C-terminal His-tag (cynomolgus monkey)
T1 construct: also called cyno FcγRIIa1; cynoFcgRIIa1; not shown: His-tag added to C-terminus
T1 chain: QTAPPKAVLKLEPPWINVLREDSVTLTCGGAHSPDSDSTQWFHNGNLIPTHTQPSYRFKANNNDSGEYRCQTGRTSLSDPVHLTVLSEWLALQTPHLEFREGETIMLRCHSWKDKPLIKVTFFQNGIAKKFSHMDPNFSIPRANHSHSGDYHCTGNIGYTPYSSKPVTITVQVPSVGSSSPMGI

[2] = biological target: T2, cynomolgus monkey FcγRIIa2 extracellular domain, C-terminal His-tag (cynomolgus monkey)
T2 construct: also called cyno FcγRIIa2; cynoFcgRIIa2; not shown: His-tag added to C-terminus
T2 chain: T1 chain with P95T, T121A, I127K, A128S, K130N, D135N, R142Q

[3] = biological target: T3, cynomolgus monkey FcγRIIb extracellular domain, C-terminal His-tag (cynomolgus monkey)
T3 construct: also called cyno FcγRIIb; cynoFcγRIIb; not shown: His-tag added to C-terminus
T3 chain: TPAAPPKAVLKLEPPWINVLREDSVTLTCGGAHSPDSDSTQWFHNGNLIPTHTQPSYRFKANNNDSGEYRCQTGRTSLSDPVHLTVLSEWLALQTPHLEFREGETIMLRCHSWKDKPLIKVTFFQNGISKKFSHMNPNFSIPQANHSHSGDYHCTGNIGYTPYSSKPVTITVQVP

[4] = biological target: T4, cynomolgus monkey FcγRIIIaS extracellular domain, C-terminal His-tag (cynomolgus monkey, UniProt A3RFZ7 21-206 (rhesus entry))
T4 construct: also called cyno FcγRIIIaS; cynoFcγRIIIaS; not shown: His-tag added to C-terminus
T4 sequence (A3RFZ7 21-206): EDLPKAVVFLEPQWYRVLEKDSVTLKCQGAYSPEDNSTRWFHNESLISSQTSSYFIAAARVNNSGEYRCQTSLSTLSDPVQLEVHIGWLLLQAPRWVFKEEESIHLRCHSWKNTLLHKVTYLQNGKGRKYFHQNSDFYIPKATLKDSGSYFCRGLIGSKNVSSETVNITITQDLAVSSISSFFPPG

[5] = biological target: T5, human FcγRIIaH extracellular domain, C-terminal His-tag (human, UniProt P12318 34-217)
T5 construct: also called human FcγRIIa (type H); FcgRIIaH; not shown: His-tag added to C-terminus
T5 sequence: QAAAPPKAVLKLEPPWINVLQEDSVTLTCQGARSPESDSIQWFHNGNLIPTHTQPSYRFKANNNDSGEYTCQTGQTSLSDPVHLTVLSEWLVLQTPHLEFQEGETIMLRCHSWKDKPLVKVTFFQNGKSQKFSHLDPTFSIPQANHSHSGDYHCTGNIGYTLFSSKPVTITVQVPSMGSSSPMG

[6] = biological target: T6, human FcγRIIaR extracellular domain, C-terminal His-tag (human, UniProt P12318 34-217)
T6 construct: also called human FcγRIIa (type R); FcgRIIaR; not shown: His-tag added to C-terminus
T6 chain: T5 sequence with H134R

[7] = biological target: T7, human FcγRIIb extracellular domain, C-terminal His-tag (human, UniProt P31994 43-217)
T7 construct: also called FcgRIIb (human); not shown: His-tag added to C-terminus
T7 sequence: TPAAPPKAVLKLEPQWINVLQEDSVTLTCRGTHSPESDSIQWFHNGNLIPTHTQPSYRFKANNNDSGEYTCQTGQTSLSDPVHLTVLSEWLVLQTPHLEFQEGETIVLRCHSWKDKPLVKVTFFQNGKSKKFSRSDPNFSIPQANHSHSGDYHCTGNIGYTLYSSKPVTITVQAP

[8] = biological target: T8, human FcγRIIIaV extracellular domain, C-terminal His-tag (human, UniProt P08637 17-208)
T8 construct: also called FcgRIIIaV; not shown: His-tag added to C-terminus
T8 sequence (P08637 17-208 F176V): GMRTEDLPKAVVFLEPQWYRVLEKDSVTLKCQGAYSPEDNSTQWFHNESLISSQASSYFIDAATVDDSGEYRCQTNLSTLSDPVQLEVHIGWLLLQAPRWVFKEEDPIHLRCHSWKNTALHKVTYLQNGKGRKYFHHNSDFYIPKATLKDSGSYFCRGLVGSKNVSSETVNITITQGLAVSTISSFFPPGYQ

Binder | KD fold (SG1 = 1) [1] [fold] | KD fold (SG1 = 1) [2] [fold] | KD fold (SG1 = 1) [3] [fold] | KD fold (SG1 = 1) [4] [fold] | KD fold (SG1 = 1) [5] [fold] | KD fold (SG1 = 1) [6] [fold] | KD fold (SG1 = 1) [7] [fold] | KD fold (SG1 = 1) [8] [fold]
B1 | 4.7 | 7.3 | 9.5 | 0.41 | 15.7 | 4.8 | 2.2 | 0.35
B2 | 1.7 | 2 | 2.9 | 0.49 | 3.3 | 2.8 | 2.6 | 0.39
B3 | 1.1 | 1.5 | 2 | 0.15 | 4.9 | 1.5 | 1 | 0.12
B4 | 1.9 | 2.7 | 4.2 | 1.24 | 7.5 | 4.4 | 3.5 | 0.93
B5 | 1.1 | 1.8 | 1.9 | 0.2 | 1.7 | 2 | 1.6 | 0.12
B6 | 2.9 | 4.6 | 5.3 | 0.3 | 13 | 4.4 | 1.9 | 0.14
B7 | 3.6 | 6.4 | 7.8 | 0.58 | 8.3 | 6.5 | 4.8 | 0.33
B8 | 0.8 | 1.5 | 1.5 | 0.21 | 1.4 | 1.1 | 0.9 | 0.08
B9 | 1 | 1.9 | 1.2 | 0.16 | 1.5 | 1.3 | 1.1 | 0.03
B10 | 1.1 | 1.4 | 1.6 | 0.49 | 1.3 | 0.7 | 1 | 0.24
B11 | 3.2 | 4.3 | 5.5 | 0.2 | 8.5 | 2.4 | 1.6 | 0.18
B12 | 1.1 | 1.5 | 2.1 | 0.05 | 0.5 | 15.1 | 30.7 | 0.02
B13 | 1.3 | 2 | 2.9 | 0.3 | 4.9 | 4.3 | 2.9 | 0.19
B14 | 2.1 | 2 | 4 | 0.05 | 0.7 | 14.5 | 32.9 | 0.03

Reference: patent publication US20200317768A1 (published 2020)
